In US20220010021A1 (Sanofi, published 2022) one finds EC50 and Emax data, which are given here for 24 molecules.

The target of the assay is human FGFR1c + KLB receptor complex on HEK293 iLite FGF21 reporter cells (human, UniProt P11362 22-822; Q86Z14 1-1044). Put plainly: cell-based or functional assay.
Sequence of human FGFR1c + KLB receptor complex on HEK293 iLite FGF21 reporter cells (P11362 22-822, chain 1 of 2): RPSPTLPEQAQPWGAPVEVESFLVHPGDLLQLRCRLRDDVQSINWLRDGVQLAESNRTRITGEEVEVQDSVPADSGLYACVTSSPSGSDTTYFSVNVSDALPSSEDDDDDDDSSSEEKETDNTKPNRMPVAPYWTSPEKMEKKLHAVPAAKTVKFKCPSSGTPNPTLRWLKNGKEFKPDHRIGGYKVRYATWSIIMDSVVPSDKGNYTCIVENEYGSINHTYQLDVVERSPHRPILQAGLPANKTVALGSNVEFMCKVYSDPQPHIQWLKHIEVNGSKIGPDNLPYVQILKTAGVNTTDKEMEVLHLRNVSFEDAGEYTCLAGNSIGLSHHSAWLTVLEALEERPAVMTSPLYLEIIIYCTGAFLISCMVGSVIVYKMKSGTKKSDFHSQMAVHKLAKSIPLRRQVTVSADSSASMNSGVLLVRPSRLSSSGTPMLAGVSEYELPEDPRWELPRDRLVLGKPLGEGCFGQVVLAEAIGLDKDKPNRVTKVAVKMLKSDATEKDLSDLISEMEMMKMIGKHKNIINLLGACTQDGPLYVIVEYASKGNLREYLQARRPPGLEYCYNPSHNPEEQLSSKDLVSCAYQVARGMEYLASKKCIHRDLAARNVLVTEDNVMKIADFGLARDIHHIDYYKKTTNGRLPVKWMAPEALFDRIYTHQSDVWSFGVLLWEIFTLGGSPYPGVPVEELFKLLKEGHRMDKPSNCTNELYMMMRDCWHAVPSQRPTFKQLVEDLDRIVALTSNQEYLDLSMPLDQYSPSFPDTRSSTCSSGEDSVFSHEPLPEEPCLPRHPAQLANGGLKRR
Sequence of human FGFR1c + KLB receptor complex on HEK293 iLite FGF21 reporter cells (Q86Z14 whole entry, chain 2 of 2): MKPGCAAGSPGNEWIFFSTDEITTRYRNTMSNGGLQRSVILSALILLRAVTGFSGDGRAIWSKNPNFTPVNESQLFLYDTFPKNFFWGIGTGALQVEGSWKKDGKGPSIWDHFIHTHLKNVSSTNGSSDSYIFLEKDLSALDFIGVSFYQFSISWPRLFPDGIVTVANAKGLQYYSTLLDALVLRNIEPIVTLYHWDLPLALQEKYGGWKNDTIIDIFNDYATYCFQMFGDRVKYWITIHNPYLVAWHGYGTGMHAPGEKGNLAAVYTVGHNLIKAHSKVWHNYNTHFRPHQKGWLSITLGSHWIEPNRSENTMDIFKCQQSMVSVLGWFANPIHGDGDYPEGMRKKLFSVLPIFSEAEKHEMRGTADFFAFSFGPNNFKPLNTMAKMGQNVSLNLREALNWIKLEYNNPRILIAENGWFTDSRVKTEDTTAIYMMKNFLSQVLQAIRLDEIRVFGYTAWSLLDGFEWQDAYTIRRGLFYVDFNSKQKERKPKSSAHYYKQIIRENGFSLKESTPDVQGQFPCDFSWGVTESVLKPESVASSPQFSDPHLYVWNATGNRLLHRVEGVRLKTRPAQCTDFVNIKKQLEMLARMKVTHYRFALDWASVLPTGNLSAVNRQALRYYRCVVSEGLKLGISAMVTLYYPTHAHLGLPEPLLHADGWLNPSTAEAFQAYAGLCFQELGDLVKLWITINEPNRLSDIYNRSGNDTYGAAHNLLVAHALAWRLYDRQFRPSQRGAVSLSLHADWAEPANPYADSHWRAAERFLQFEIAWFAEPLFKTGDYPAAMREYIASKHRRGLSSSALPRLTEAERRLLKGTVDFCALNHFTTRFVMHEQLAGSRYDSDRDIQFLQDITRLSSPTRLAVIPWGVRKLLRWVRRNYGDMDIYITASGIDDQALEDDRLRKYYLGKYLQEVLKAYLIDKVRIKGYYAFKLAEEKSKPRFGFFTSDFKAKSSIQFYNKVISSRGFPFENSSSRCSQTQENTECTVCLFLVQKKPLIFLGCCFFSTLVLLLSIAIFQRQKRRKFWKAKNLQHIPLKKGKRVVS

B1: Ab0181 (antibody, IgG4, V domains shown)
VH: not shown
VL: SYVLTQPPSVSVAPGQTARITCGGNNIGSESVHWYQQKPGQAPVLVVYYDSDRPSGIPERFSGSNSGNTATLTISRVEAGDEADYYCQVWDGNSDHVVFGGGTKLTVLG
As a reminder, the EC50 is the concentration needed to bring the measured effect to its halfway point. As a reminder, the Emax is the size of the effect at its maximum, as opposed to the concentration needed. Consider B1, for which the EC50 came out at 0.03 nmol/L and the Emax was 2110%.

B2: Ab0238 (antibody, IgG4, V domains shown)
VH: not shown
VL: SYVLTQPPSVSVAPGQTARITCGGNNIGSESVHWYQQKPGQAPVLVVYDDSDRPSGIPERFSGSNSGNTATLTISRVEAGDEADYYCQVWDGNSSHVVFGGGTKLTVLG
For the molecule B2, the Emax stood at 856%.

B3: Ab0192 (antibody, IgG4, V domains shown)
VH: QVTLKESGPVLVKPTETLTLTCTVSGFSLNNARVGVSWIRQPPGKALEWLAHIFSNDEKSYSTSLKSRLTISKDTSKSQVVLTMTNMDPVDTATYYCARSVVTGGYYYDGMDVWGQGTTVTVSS
VL: SYVLTQPPSVSVAPGQTARITCGGNNIGSESVHWYQQKPGQAPVLVVYDDSDRPSGIPERFSGSNSGNTATLTISRVEAGDEADYYCQVWDGNSEHVVFGGGTKLTVLG
Turning to B3, the EC50 came out at 3.67 nmol/L and the Emax turned out to be 1610%.

B4: Ab0237 (antibody, IgG4, V domains shown)
VH: not shown
VL: SYVLTQPPSVSVAPGQTARITCGGNNIGSESVHWYQQKPGQAPVLVVYDDSDRPSGIPERFSGSNSGNTATLTISRVEAGDEADYYCQVWDGNSAHVVFGGGTKLTVLG
As to B4, the EC50 is more than 100 nmol/L and the Emax was 667%.

B5: Ab0206 (antibody, IgG4, V domains shown)
VH: QVTLKESGPVLVKPTETLTLTCTVSGFSLNNARVGVSWIRQPPGKALEWLAHIFSNDEKSYSTSLKSRLTISKDTSKSQVVLTMTNMDPVDTATYYCARSVVTGGYYYEGMDVWGQGTTVTVSS
VL: SYVLTQPPSVSVAPGQTARITCGGNNIGSESVHWYQQKPGQAPVLVVYDDSDRPSGIPERFSGSNSGNTATLTISRVEAGDEADYYCQVWDGNSEHVVFGGGTKLTVLG
As to B5, the EC50 is 0.69 nmol/L and the Emax stood at 2640%.

B6: Ab0213 (antibody, IgG4, V domains shown)
VH: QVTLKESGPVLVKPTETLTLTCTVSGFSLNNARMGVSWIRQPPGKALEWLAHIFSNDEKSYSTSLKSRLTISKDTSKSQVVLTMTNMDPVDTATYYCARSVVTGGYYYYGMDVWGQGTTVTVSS
VL: SYVLTQPPSVSVAPGQTARITCGGNNIGSESVHWYQQKPGQAPVLVVYDDSDRPSGIPERFSGSNSGNTATLTISRVEAGDEADYYCQVWDGNSEHVVFGGGTKLTVLG
As for B6, the EC50 was more than 100 nmol/L and the Emax worked out at 122%.

B7: Ab0211 (antibody, IgG4, V domains shown)
VH: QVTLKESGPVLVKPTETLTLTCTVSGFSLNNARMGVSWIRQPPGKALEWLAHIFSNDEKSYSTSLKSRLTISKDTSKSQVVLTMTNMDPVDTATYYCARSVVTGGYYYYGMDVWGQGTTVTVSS
VL: SYVLTQPPSVSVAPGQTARITCGGNNIGSESVHWYQQKPGQAPVLVVYDDSDRPSGIPERFSGSNSGNTATLTISRVEAGDEADYYCQVWTGNSDHVVFGGGTKLTVLG
As for B7, the EC50 stood at 12 nmol/L and the Emax was determined as 1600%.

B8: Ab0220 (antibody, IgG4, V domains shown)
VH: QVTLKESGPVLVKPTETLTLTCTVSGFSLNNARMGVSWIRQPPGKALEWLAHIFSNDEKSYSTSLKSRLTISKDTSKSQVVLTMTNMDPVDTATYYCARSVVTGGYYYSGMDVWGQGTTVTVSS
VL: SYVLTQPPSVSVAPGQTARITCGGNNIGSESVHWYQQKPGQAPVLVVYDDSDRPSGIPERFSGSNSGNTATLTISRVEAGDEADYYCQVWDGNSEHVVFGGGTKLTVLG
For the molecule B8, the EC50 was determined as 22.2 nmol/L and the Emax stood at 1190%.

B9: Ab0300 (antibody, IgG4, V domains shown)
VH: QVTLKESGPVLVKPTETLTLTCTVSGFSLNNARVGVSWIRQPPGKALEWLAHIFSNDEKSYSTSLKSRLTISKDTSKSQVVLTMTNMDPVDTATYYCARSVVTGGYYYEGMDVWGQGTTVTVSS
VL: SYVLTQPPSVSVAPGQTARITCGGNNIGSESVHWYQQKPGQAPVLVVYYDSDRPSGIPERFSGSNSGNTATLTISRVEAGDEADYYCQVWTGNSDHVVFGGGTKLTVLG
With B9, the EC50 was 2.63 nmol/L and the Emax turned out to be 605%.

B10: Ab0313 (antibody, IgG4, V domains shown)
VH: QVTLKESGPVLVKPTETLTLTCTVSGFSLNNARVGVSWIRQPPGKALEWLAHIFSNDEKSYSTSLKSRLTISKDTSKSQVVLTMTNMDPVDTATYYCARSVVTGGYYYEGMDVWGQGTTVTVSS
VL: SYVLTQPPSVSVAPGQTARITCGGNNIGSESVHWYQQKPGQAPVLVVYDDSDRPSGIPERFSGSNSGNTATLTISRVEAGDEADYYCQVWTGESDHVVFGGGTKLTVLG
Take B10: the EC50 came to 0.04 nmol/L and the Emax is 1130%.

B11: Ab0199 (antibody, IgG4, V domains shown)
VH: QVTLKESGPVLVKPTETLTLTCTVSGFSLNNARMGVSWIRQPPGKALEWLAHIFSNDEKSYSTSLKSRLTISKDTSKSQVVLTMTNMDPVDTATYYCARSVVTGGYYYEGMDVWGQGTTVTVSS
VL: SYVLTQPPSVSVAPGQTARITCGGNNIGSESVHWYQQKPGQAPVLVVYDDSDRPSGIPERFSGSNSGNTATLTISRVEAGDEADYYCQVWDGNSEHVVFGGGTKLTVLG
Regarding B11, the EC50 was more than 100 nmol/L and the Emax is 736%.

B12: Ab0303 (antibody, IgG4, V domains shown)
VH: QVTLKESGPVLVKPTETLTLTCTVSGFSLNNARVGVSWIRQPPGKALEWLAHIFSNDEKSYSTSLKSRLTISKDTSKSQVVLTMTNMDPVDTATYYCARSVVTGGYYYEGMDVWGQGTTVTVSS
VL: SYVLTQPPSVSVAPGQTARITCGGSNIGSESVHWYQQKPGQAPVLVVYDESDRPSGIPERFSGSNSGNTATLTISRVEAGDEADYYCQVWTGNSDHVVFGGGTKLTVLG
As to B12, the EC50 worked out at 19.2 nmol/L and the Emax was found to be 809%.

B13: Ab0302 (antibody, IgG4, V domains shown)
VH: QVTLKESGPVLVKPTETLTLTCTVSGFSLNNARVGVSWIRQPPGKALEWLAHIFSNDEKSYSTSLKSRLTISKDTSKSQVVLTMTNMDPVDTATYYCARSVVTGGYYYEGMDVWGQGTTVTVSS
VL: SYVLTQPPSVSVAPGQTARITCGGNNIGSESVHWYQQKPGQAPVLVVYDESDRPSGIPERFSGSNSGNTATLTISRVEAGDEADYYCQVWTGNSDHVVFGGGTKLTVLG
Turning to B13, the EC50 was 3.94 nmol/L and the Emax stood at 795%.

B14: Ab0299 (antibody, IgG4, V domains shown)
VH: QVTLKESGPVLVKPTETLTLTCTVSGFSLNNARVGVSWIRQPPGKALEWLAHIFSNDEKSYSTSLKSRLTISKDTSKSQVVLTMTNMDPVDTATYYCARSVVTGGYYYEGMDVWGQGTTVTVSS
VL: SYVLTQPPSVSVAPGQTARITCGGSNIGSESVHWYQQKPGQAPVLVVYDDSDRPSGIPERFSGSNSGNTATLTISRVEAGDEADYYCQVWTGNSDHVVFGGGTKLTVLG
On to B14, for which the EC50 was 0.1 nmol/L and the maximum response (Emax) was 1240%.

B15: Ab0210 (antibody, IgG4, V domains shown)
VH: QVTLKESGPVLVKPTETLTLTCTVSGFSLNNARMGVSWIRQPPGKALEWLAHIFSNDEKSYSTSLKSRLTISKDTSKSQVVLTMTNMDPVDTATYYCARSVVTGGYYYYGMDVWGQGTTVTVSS
VL: SYVLTQPPSVSVAPGQTARITCGGNNIGSESVHWYQQKPGQAPVLVVYDESDRPSGIPERFSGSNSGNTATLTISRVEAGDEADYYCQVWDGNSDHVVFGGGTKLTVLG
As to B15, the 50% effective concentration (EC50) turned out to be 5.31 nmol/L and the Emax turned out to be 2390%.

B16: Ab0185 (antibody, IgG4, V domains shown)
VH: not shown
VL: SYVLTQPPSVSVAPGQTARITCGGNNIGSESVHWYQQKPGQAPVLVVYDDSDRPSGIPERFSGSNSGNTATLTISRVEAGDEADYYCQVWDGNSEHVVFGGGTKLTVLG
Consider B16, for which the EC50 was 0.06 nmol/L and the Emax is 2350%.

B17: Ab0301 (antibody, IgG4, V domains shown)
VH: QVTLKESGPVLVKPTETLTLTCTVSGFSLNNARVGVSWIRQPPGKALEWLAHIFSNDEKSYSTSLKSRLTISKDTSKSQVVLTMTNMDPVDTATYYCARSVVTGGYYYEGMDVWGQGTTVTVSS
VL: SYVLTQPPSVSVAPGQTARITCGGSNIGSESVHWYQQKPGQAPVLVVYYDSDRPSGIPERFSGSNSGNTATLTISRVEAGDEADYYCQVWTGNSDHVVFGGGTKLTVLG
Regarding B17, the EC50 came out at 21.5 nmol/L and the Emax was 697%.

B18: Ab0209 (antibody, IgG4, V domains shown)
VH: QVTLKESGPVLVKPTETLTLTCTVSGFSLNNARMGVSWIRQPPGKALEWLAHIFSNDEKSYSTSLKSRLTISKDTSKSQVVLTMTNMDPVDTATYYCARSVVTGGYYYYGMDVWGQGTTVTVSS
VL: SYVLTQPPSVSVAPGQTARITCGGNNIGSESVHWYQQKPGQAPVLVVYYDSDRPSGIPERFSGSNSGNTATLTISRVEAGDEADYYCQVWDGNSDHVVFGGGTKLTVLG
B18: the EC50 was 15.3 nmol/L and the Emax is 1960%.

B19: Ab0415 (antibody, IgG4, V domains shown)
VH: QVTLKESGPVLVKPTETLTLTCTVSGFSLNNARVGVSWIRQPPGKALEWLAHIFSNDEKSYSTSLKSRLTISKDTSKSQVVLTMTNMDPVDTATYYCARSVVTGGYYYEGMDVWGQGTTVTVSS
VL: SYVLTQPPSVSVAPGQTARITCGGSNIGSESVHWYQQKPGQAPVLVVYYESDRPSGIPERFSGSNSGNTATLTISRVEAGDEADYYCQVWAGESDHVVFGGGTKLTVLG
Consider B19, for which the EC50 worked out at 0.3 nmol/L and the maximum response (Emax) came out at 674%.

B20: Ab0386 (antibody, IgG4, V domains shown)
VH: QVTLKESGPVLVKPTETLTLTCTVSGFSLNNARVGVSWIRQPPGKALEWLAHIWSNDEKSYSTSLKSRLTISKDTSKSQVVLTMTNMDPVDTATYYCARSVVTGGYYYEGMDVWGQGTTVTVSS
VL: SYVLTQPPSVSVAPGQTARITCGGNNIGSESVHWYQQKPGQAPVLVVYDDSDRPSGIPERFSGSNSGNTATLTISRVEAGDEADYYCQVFDGNSSHVVFGGGTKLTVLG
For the molecule B20, the EC50 is more than 100 nmol/L.

B21: Ab0330 (antibody, IgG4, V domains shown)
VH: QVTLKESGPVLVKPTETLTLTCTVSGFSLNNARVGVSWIRQPPGKALEWLAHIFSNDEKSYSTSLKSRLTISKDTSKSQVVLTMTNMDPVDTATYYCARSVVTGGYYYEGMDVWGQGTTVTVSS
VL: SYVLTQPPSVSVAPGQTARITCGGSNIGSESVHWYQQKPGQAPVLVVYSESDRPSGIPERFSGSNSGNTATLTISRVEAGDEADYYCQVWAGESDHVVFGGGTKLTVLG
On to B21, for which the EC50 was found to be 0.15 nmol/L and the Emax was 932%.

B22: Ab0350 (antibody, IgG4, V domains shown)
VH: QVTLKESGPVLVKPTETLTLTCTVSGFSLNNARVGVSWIRQPPGKALEWLAHIFSNDEKSYSTSLKSRLTISKDTSKSQVVLTMTNMDPVDTATYYCARSVVTGGYYYEGMDVWGQGTTVTVSS
VL: SYVLTQPPSVSVAPGQTARITCGGSNIGSESVHWYQQKPGQAPVLVVYEESDRPSGIPERFSGSNSGNTATLTISRVEAGDEADYYCQVWAGSSDHVVFGGGTKLTVLG
B22: the EC50 came to 1.46 nmol/L and the Emax amounted to 493%.

B23: Ab0224 (antibody, IgG4, V domains shown)
VH: not shown
VL: SYVLTQPPSVSVAPGQTARITCGGNNIGSESVHWYQQKPGQAPVLVVYADSDRPSGIPERFSGSNSGNTATLTISRVEAGDEADYYCQVWDGNSDHVVFGGGTKLTVLG
On to B23, for which the EC50 came out at 0.05 nmol/L and the Emax was 2260%.

B24: human FGF21 (ligand)
chain: GHPIPDSSPLLQFGGQVRQRYLYTDDAQQTEAHLEIREDGTVGGAADQSPESLLQLKALKPGVIQILGVKTSRFLCQRPDGALYGSLHFDPEACSFRELLLEDGYNVYQSEAHGLPLHLPGNKSPHRDPAPRGPARFLPLPGLPPAPPEPPGILAPQPPDVGSSDPLSMVGPSQGRSPSYAS
As to B24, the EC50 came out at 0.35 nmol/L and the Emax came out at 4000%.
